Data reported in patent US20240327505A1 (published 2024).

Legend:
[1] = target: SARS-CoV-2 spike S2 protein (SARS-CoV-2, UniProt P0DTC2 686-1213)
[2] = target: T1, SARS-CoV-2 Spike (S) trimer (SARS-CoV-2, UniProt P0DTC2 16-1213); experiment: ELISA, S trimer coated, antibody at 1:50 dilution
[3] = target: SARS-CoV-2 Spike (S) trimer (SARS-CoV-2, UniProt P0DTC2 16-1213); experiment: ELISA, S trimer coated, antibody at 1:50 dilution; remark: listed apart in the source
[4] = target: T1, SARS-CoV-2 Spike (S) trimer

B1: AB-009358 (antibody, V domains shown)
VH: QVHLVQSGAEVKKPGASVKISCKASGYTFTSYYVHWVRQAPGQGLEWMGIIKPSGAGTIYAQKFQGRVTMTRDTSTSTVYMELSSLISEDTAVYYCARGGGVTDRDYWGQGTLVTVSS
VL: QSALTQEASVSATVGQKVTLSCTGNTNNIGGYAVGWHQQISHGAPKTVMFGNSLPSGIPDRFSGSKSGTTASLIISGLQPEDEADYYCSTWDSSLGAVLFGGGTKLTVL
B1 gave a Kd [1] of 478 nM, a koff [1] of 0.00176 s⁻¹ and a kon [1] of 3690 M⁻¹ s⁻¹.

B2: AB-009271 (antibody, V domains shown)
VH: EVQLVESGGGLIQPGGSLRLSCAASGFIVSSNYMSWVRQAPGKGLEWVSVIYSGGSTYYADSVKGRFTISRDNSKNTLYLQMNSLRAEDTAVYYCARDYGDFYFDYWGQGTLVTVSS
VL: EIVMTQSPATLSVSPGERATLSCRASQSVSSNLAWYQQKPGQAPRLLIYGASTRATGIPARFSGSGSGTEFTLTISSLQSEDFAVYYCQQYYNWPRTFGQGTKVEIK
With B2 the “Optical Density (OD; 450 nm)” value [2] was 2.94 OD 450 nm.

B3: AB-009613 (antibody, V domains shown)
VH: EVQLVESGGGLIQPGGSLRLSCAASGFTVSSNYMSWVRQAPGKGLEWVSVIYSGGSTYYADSVKGRFTISRDNSKNTLYLQMNSLRAEDTAVYYCARDYGDFYFDYWGQGTLVTVSS
VL: not shown
With B3 the “Optical Density (OD; 450 nm)” value [2] was 2.47 OD 450 nm.

B4: AB-009610 (antibody, V domains shown)
VH: QVQLVQSGAEVKKPGSSVKVSCKASGGTFSNYAISWVRQAPGQGLEWMGRIIPILGIANYAQKFQGRVTITADKSTSTAYMELSSLRSEDTAVYYCATTPYYYDSSGYYLDYWGQGTLVTVSS
VL: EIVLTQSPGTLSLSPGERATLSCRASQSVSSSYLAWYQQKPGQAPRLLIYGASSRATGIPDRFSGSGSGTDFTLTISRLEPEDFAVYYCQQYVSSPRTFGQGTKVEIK
B4 was tested, and the “Optical Density (OD; 450 nm)” value [2] was 2.02 OD 450 nm.

B5: AB-009629 (antibody, V domains shown)
VH: QVQLQQWGAGLLKPSETLSLTCAVYGGSFSGYYWSWIRQPPGKGLEWIGEINHSGSTNYNPSLKSRVTISVDTSKNQFSLKLSSVTAADTAVYFCARGTGIAVAGVLVNFYYCYYMDVWGKGTTVTVSS
VL: SSELTQDPAVSVALGQTVRITCQGDSLRSYYASWYQQKPGQAPVLVIYGKNNRPSGIPDRFSGSSSGNTASLTITGAQAEDEADYYCNSRDSSGNHLVFGGGTKLTVL
With B5 the “Optical Density (OD; 450 nm)” value [3] was 0.114 OD 450 nm.

B6: AB-010020 (antibody, V domains shown)
VH: QMQLVQSGPEVKKPGTSVKVSCKASGFTFTSSAVQWVRQARGQRLEWIGWIVVGSGNTNYAQKFQERVTITRDMSTSTAYMELSSLRSEDTAVYYCAAPACSSTSCYDGFDIWGQGTMVTVSS
VL: not shown
In the case of B6, the EC50 [4] is reported as 0.15 nM.

B7: AB-010021 (antibody, V domains shown)
VH: QMQLVQSGPEVKKPGTSVKVSCKASGFTFTSSAVQWVRQARGQRLEWIGWIVVGSGNTNYAQKFQERVTITRDMSTSTAYMELSSLRSEDTAVYYCAAVYCSGGSCLDAFDIWGQGTMVTVSS
VL: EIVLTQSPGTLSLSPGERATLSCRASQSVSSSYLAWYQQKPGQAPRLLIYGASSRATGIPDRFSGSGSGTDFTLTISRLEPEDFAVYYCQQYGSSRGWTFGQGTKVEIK
For B7, the EC50 [4] was 0.23 nM.
